{"source": "paper PMC10588359", "key": {"[1]": {"molecular_target": "CaMKK1_(67–480) D293A, unphosphorylated (human) (UniProt Q8N5S9)", "test": "AUC; sedimentation velocity of CaMKKs alone at two concentrations (CaMKK1 at 10 μM); 50 mM Tris–HCl pH 7.5, 150 mM NaCl, 1 mM TCEP; 20°C, 42,000 rpm; monomer to dimer"}, "[2]": {"molecular_target": "dansyl-labeled calmodulin (DANS-CaM), Ca2+-bound (rat) (UniProt P0DP29)", "test": "fluorescence polarisation; as a1 but with 60 μM 14-3-3γ present: 2 μM DANS-CaM titrated with CaMKK (30 μM and binary dilution series), 1 h incubation; 10 mM HEPES-NaOH pH 7.4, 150 mM NaCl, 1 mM CaCl2, 0.1% Tween 20, 0.1% BSA; one-site-binding model"}, "[3]": {"molecular_target": "dansyl-labeled calmodulin (DANS-CaM), Ca2+-bound (rat) (UniProt P0DP29)", "test": "fluorescence polarisation; 2 μM DANS-CaM titrated with CaMKK (30 μM and binary dilution series), 1 h incubation; 10 mM HEPES-NaOH pH 7.4, 150 mM NaCl, 1 mM CaCl2, 0.1% Tween 20, 0.1% BSA; one-site-binding model"}}}
{"substance": "CaMKK1_(67–480) D293A, unphosphorylated (from UniProt Q8N5S9 67-480) (domain or fragment)", "values": [{"measurement": "stoichiometry N", "setting": "[1]", "result": 2}]}
{"substance": "CaMKK2(93-517) D330A, unphosphorylated (from UniProt Q96RR4 93-517) (domain or fragment)", "values": [{"measurement": "Kd", "setting": "[2]", "result": 510, "unit": "nM"}, {"measurement": "Kd", "setting": "[3]", "result": 560, "unit": "nM"}]}
{"substance": "pCaMKK2: CaMKK2(93-517) D330A phosphorylated by PKA at four sites (from UniProt Q96RR4 93-517) (domain or fragment)", "values": [{"measurement": "Kd", "setting": "[2]", "result": "> 10800", "unit": "nM"}, {"measurement": "Kd", "setting": "[3]", "result": 3550, "unit": "nM"}]}
